One block for each binder: values may come before it.
Key:
[1] = molecular target: T1, His-IARS1, full-length human IARS1 (residues 1−1262) (human, UniProt P41252 1-1262); test: pull-down; human His-IARS1 or IARS1ΔUBX2 mixed with human GST-EARS1 at 1:1.5, 30 min at 4 °C, Ni-sepharose beads 2 hr at 4 °C, eluted with 250 mM imidazole in His A buffer (20 mM Tris-HCl pH 7.4, 300 mM NaCl, 7 mM 2-mercaptoethanol, 5% glycerol), SDS-PAGE and Coomassie; conditions: both partners purified
T1 construct: pFASTbacHTb vector; also called purified IARS1; full-length IARS1; source: Sf9, purified (Ni2+ column, IEX, SEC); not shown: His6, N-terminal, kept
T1 sequence (looked up): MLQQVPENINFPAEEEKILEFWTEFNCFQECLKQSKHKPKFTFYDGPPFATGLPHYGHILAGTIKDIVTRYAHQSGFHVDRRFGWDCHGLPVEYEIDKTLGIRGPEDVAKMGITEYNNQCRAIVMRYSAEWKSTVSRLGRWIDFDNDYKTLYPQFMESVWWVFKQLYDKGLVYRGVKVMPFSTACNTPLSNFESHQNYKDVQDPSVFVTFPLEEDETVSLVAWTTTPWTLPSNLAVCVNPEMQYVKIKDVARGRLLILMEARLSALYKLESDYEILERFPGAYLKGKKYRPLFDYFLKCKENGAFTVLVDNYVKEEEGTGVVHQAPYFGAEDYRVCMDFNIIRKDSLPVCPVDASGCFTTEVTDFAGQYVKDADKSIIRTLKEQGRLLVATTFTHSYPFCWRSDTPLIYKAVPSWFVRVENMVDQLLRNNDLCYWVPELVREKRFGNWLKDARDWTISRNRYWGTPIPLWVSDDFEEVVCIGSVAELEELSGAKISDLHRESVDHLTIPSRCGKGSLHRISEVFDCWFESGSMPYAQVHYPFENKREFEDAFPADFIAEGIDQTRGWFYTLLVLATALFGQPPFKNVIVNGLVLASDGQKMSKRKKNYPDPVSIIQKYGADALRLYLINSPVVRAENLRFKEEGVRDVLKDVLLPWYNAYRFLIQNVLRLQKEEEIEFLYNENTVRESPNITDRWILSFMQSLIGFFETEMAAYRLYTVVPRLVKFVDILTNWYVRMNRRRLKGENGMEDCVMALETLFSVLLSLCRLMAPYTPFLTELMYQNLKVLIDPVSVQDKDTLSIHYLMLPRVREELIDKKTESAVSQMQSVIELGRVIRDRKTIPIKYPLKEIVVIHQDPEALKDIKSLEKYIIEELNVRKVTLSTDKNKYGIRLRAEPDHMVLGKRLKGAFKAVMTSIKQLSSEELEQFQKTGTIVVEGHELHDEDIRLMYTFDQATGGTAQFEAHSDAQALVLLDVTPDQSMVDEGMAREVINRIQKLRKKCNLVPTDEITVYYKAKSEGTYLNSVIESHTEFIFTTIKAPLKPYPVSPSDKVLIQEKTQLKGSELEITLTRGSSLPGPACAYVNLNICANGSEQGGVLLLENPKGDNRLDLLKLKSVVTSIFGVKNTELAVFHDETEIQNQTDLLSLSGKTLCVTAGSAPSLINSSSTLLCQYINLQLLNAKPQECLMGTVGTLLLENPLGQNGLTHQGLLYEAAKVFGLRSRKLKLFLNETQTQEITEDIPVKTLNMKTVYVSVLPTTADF

[2] = molecular target: T1, His-IARS1, full-length human IARS1 …; test: pull-down; in vitro pull-down of IARS1 with fragments of the BRCA1-BARD1 complex; conditions: both partners purified

B1: GST-EARS1 without the WHEP motifs (human EPRS1 residues 1−706) (domain or fragment, UniProt P07814 1-706, looked up)
chain: MATLSLTVNSGDPPLGALLAVEHVKDDVSISVEEGKENILHVSENVIFTDVNSILRYLARVATTAGLYGSNLMEHTEIDHWLEFSATKLSSCDSFTSTINELNHCLSLRTYLVGNSLSLADLCVWATLKGNAAWQEQLKQKKAPVHVKRWFGFLEAQQAFQSVGTKWDVSTTKARVAPEKKQDVGKFVELPGAEMGKVTVRFPPEASGYLHIGHAKAALLNQHYQVNFKGKLIMRFDDTNPEKEKEDFEKVILEDVAMLHIKPDQFTYTSDHFETIMKYAEKLIQEGKAYVDDTPAEQMKAEREQRIDSKHRKNPIEKNLQMWEEMKKGSQFGQSCCLRAKIDMSSNNGCMRDPTLYRCKIQPHPRTGNKYNVYPTYDFACPIVDSIEGVTHALRTTEYHDRDEQFYWIIEALGIRKPYIWEYSRLNLNNTVLSKRKLTWFVNEGLVDGWDDPRFPTVRGVLRRGMTVEGLKQFIAAQGSSRSVVNMEWDKIWAFNKKVIDPVAPRYVALLKKEVIPVNVPEAQEEMKEVAKHPKNPEVGLKPVWYSPKVFIEGADAETFSEGEMVTFINWGNLNITKIHKNADGKIISLDAKLNLENKDYKKTTKVTWLAETTHALPIPVICVTYEHLITKPVLGKDEDFKQYVNKNSKHEELMLGDPCLKDLKKGDIIQLQRRGFFICDQPYEPVSPYSCKEAPCVLIYIPDGH
notes: human EPRS1, EARS1 part without the three WHEP motifs, residues 1-706; pGEX4T3 vector; source: E. coli Rosetta (DE3), purified (GST column, gel filtration)
binding result [1]: binds

B2: BRCT domain (residues 1645–1863) of BRCA1 (domain or fragment, UniProt P38398 1645-1863, looked up)
chain: RVNKRMSMVVSGLTPEEFMLVYKFARKHHITLTNLITEETTHVVMKTDAEFVCERTLKYFLGIAGGKWVVSYFWVTQSIKERKMLNEHDFEVRGDVVNGRNHQGPKRARESQDRKIFRGLEICCYGPFTNMPTDQLEWMVQLCGASVVKELSSFTLGTGVHPIVVVQPDAWTEDNGFHAIGQMCEAPVVTREWVLDSVALYQCQELDTYLIPQIPHSHY
notes: BRCA1 BRCT domain, residues 1645-1863; also called BRCA1 BRCT
binding result [2]: binds

The next lines start with the values.

binding result [2]: binds
B3: heterodimeric RING (BRCA1 residues 1–304)-RING (BARD1 residues 26–142) domains of the BRCA1-BARD1 complex (complex)
chain 1: MDLSALRVEEVQNVINAMQKILECPICLELIKEPVSTKCDHIFCKFCMLKLLNQKKGPSQCPLCKNDITKRSLQESTRFSQLVEELLKIICAFQLDTGLEYANSYNFAKKENNSPEHLKDEVSIIQSMGYRNRAKRLLQSEPENPSLQETSLSVQLSNLGTVRTLRTKQRIQPQKTSVYIELGSDSSEDTVNKATYCSVGDQELLQITPQGTRDEISLDSAKKAACEFSETDVTNTEHHQPSNNDLNTTEKRAAERHPEKYQGSSVSNLHVEPCGTNTHASSLQHENSSLLLTKDRMNVEKAEF
chain 2: MEPDGRGAWAHSRAALDRLEKLLRCSRCTNILREPVCLGGCEHIFCSNCVSDCIGTGCPVCYTPAWIQDLKINRQLDSMIQLCSKLRNLLHDNELSDLKEDKPRKSLFNDAGNKKNS
notes: also called RING-RING domains; source: expressed and purified as the BRCA1-BARD1 complex

binding result [1]: binds
B4: GST-EARS1 with three WHEP motifs (human EPRS1 residues 1–1015) (domain or fragment, UniProt P07814 1-1015, looked up)
chain: MATLSLTVNSGDPPLGALLAVEHVKDDVSISVEEGKENILHVSENVIFTDVNSILRYLARVATTAGLYGSNLMEHTEIDHWLEFSATKLSSCDSFTSTINELNHCLSLRTYLVGNSLSLADLCVWATLKGNAAWQEQLKQKKAPVHVKRWFGFLEAQQAFQSVGTKWDVSTTKARVAPEKKQDVGKFVELPGAEMGKVTVRFPPEASGYLHIGHAKAALLNQHYQVNFKGKLIMRFDDTNPEKEKEDFEKVILEDVAMLHIKPDQFTYTSDHFETIMKYAEKLIQEGKAYVDDTPAEQMKAEREQRIDSKHRKNPIEKNLQMWEEMKKGSQFGQSCCLRAKIDMSSNNGCMRDPTLYRCKIQPHPRTGNKYNVYPTYDFACPIVDSIEGVTHALRTTEYHDRDEQFYWIIEALGIRKPYIWEYSRLNLNNTVLSKRKLTWFVNEGLVDGWDDPRFPTVRGVLRRGMTVEGLKQFIAAQGSSRSVVNMEWDKIWAFNKKVIDPVAPRYVALLKKEVIPVNVPEAQEEMKEVAKHPKNPEVGLKPVWYSPKVFIEGADAETFSEGEMVTFINWGNLNITKIHKNADGKIISLDAKLNLENKDYKKTTKVTWLAETTHALPIPVICVTYEHLITKPVLGKDEDFKQYVNKNSKHEELMLGDPCLKDLKKGDIIQLQRRGFFICDQPYEPVSPYSCKEAPCVLIYIPDGHTKEMPTSGSKEKTKVEATKNETSAPFKERPTPSLNNNCTTSEDSLVLYNRVAVQGDVVRELKAKKAPKEDVDAAVKQLLSLKAEYKEKTGQEYKPGNPPAEIGQNISSNSSASILESKSLYDEVAAQGEVVRKLKAEKSPKAKINEAVECLLSLKAQYKEKTGKEYIPGQPPLSQSSDSSPTRNSEPAGLETPEAKVLFDKVASQGEVVRKLKTEKAPKDQVDIAVQELLQLKAQYKSLIGVEYKPVSATGAEDKDKKKKEKENKSEKQNKPQKQNDGQRKDPSKNQGGGLSSSGAGEGQGPKKQTRLG
notes: pGEX4T3 vector; source: E. coli Rosetta (DE3), purified (GST column, gel filtration)

From PMC9643514, “Regulation of BRCA1 stability through the tandem UBX domains of isoleucyl-tRNA synthetase 1” (Nature Communications, 2022)
